This is an account of results in article PMC3240630, “Structural Analysis of the UBA Domain of X-linked Inhibitor of Apoptosis Protein Reveals Different Surfaces for Ubiquitin-Binding and Self-Association” (PLoS ONE, 2011).

Data set [1] deals with the molecule itself. Briefly: 15N relaxation (rotational correlation time against concentration); 15N-XIAP-UBA at 0.16-1.9 mM; T1 and T2 at 298 K; non-linear fit of the rotational correlation time; dimer to monomers.
The target in data set [2] is T1, linear-linked diubiquitin (UniProt P0CG48 1-76; P0CG48 1-76).
T1 construct: ubiquitin, mature 76-residue protein, first unit; its C-terminal Gly is joined to the N-terminal Met of the next unit; ubiquitin, mature 76-residue protein, second unit; Unlabelled; also called LL-Ub2; linear-linked Ub2
Briefly: NMR titration; 15N-labelled XIAP-UBA (0.5 mM, about 0.3 mM at the last point, predominantly monomeric) titrated with unlabelled monoUb (to molar ratio 5.5), K48-Ub2 or LL-Ub2 (to 2.5); 1H-15N HSQC chemical shift perturbation; 298 K; 20 mM BisTris-HCl pH 6.7, 150 mM NaCl, 5 mM DTT. Conditions: both partners purified.

The target of data set [3] is T2, human ubiquitin (mono-ubiquitin) (human, UniProt P0CG48 1-76).
T2 construct: ubiquitin, human, the mature 76-residue protein (C-terminal diglycine Gly75-Gly76); Used unlabelled or 15N-labelled
The data set is described as above. Conditions: both partners purified.

B1: XIAP-UBA (UBA domain of X-linked inhibitor of apoptosis protein, residues 365-423) (domain or fragment, human, UniProt P98170 365-423, looked up)
chain: RIDDTIFQNPMVQEAIRMGFSFKDIKKIMEEKIQISGSNYKSLEVLVADLVNAQKDSMQ
notes: PDB 2KNA holds the longer construct 357-449; Used 15N- or 13C/15N-labelled or unlabelled; The tags are separated from XIAP-UBA by a thrombin site (LVPRG); also called XIAP UBA domain; XIAP-UBA WT; source: E. coli BL21 (DE3), purified
What is called Kd is the equilibrium constant for the complex coming apart. What is called stoichiometry N is a count of units in the complex or per binding partner. For B1, the values for the Kd in data set [1], in data set [2] and in data set [3] were approximately 900 µM, 59 ± 11 µM and 249 ± 19 µM, respectively. The “stoichiometry N” value in data set [1] was determined as 2.
